{"source": "patent US6515118", "key": {"[1]": {"system": "Ac-Asp-Glu-Ala-Asp-aldehyde (Ac-DEAD-CHO)"}, "[2]": {"system": "lamin B1 in co-incubated nuclei"}, "[3]": {"target": "T1, DFF-40, 40-kDa subunit of DNA Fragmentation Factor (DFF), purified from HeLa cell S-100 (UniProt O76075)", "T1 sequence": "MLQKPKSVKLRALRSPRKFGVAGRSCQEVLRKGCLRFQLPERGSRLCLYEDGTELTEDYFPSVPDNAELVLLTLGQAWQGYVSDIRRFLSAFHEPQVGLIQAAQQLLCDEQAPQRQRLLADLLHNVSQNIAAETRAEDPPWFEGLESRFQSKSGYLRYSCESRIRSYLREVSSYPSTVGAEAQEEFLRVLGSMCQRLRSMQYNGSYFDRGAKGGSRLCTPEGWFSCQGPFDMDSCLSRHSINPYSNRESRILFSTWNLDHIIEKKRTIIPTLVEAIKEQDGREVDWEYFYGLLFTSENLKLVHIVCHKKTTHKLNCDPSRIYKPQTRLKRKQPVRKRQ"}, "[4]": {"system": "DFF-45, 45-kDa subunit of DNA Fragmentation Factor (DFF), purified from HeLa cell S-100"}, "[5]": {"system": "poly(ADP-ribose) polymerase (PARP) in co-incubated nuclei"}, "[6]": {"system": "recombinant DFF-45 fusion protein with a six-histidine tag at the NH2-terminus"}}}
{"substance": "active recombinant caspase-3", "values": [{"measurement": "cleavage of PARP and lamin B1 in co-incubated nuclei (immunoblot)", "setting": "[1]", "value": "Ac-DEAD SEQ ID NO:6-CHO still blocked the cleavage of both PARP and lamin B1 in the co-incubated nuclei"}, {"measurement": "time course of lamin B1 cleavage in nuclei (immunoblot)", "setting": "[2]", "value": "the rate of Lamin B1 cleavage by caspase-3 remained the same with or without DFF"}, {"measurement": "cleavage of biotinylated DFF (SDS-PAGE, streptavidin-peroxidase chemiluminescence)", "setting": "[3]", "value": "the 40-kDa subunit remained intact"}, {"measurement": "cleavage of biotinylated DFF (SDS-PAGE, streptavidin-peroxidase chemiluminescence)", "setting": "[4]", "value": "Incubation with caspase-3 resulted in the cleavage of the 45-kDa subunit into fragments of molecular masses of 30 kDa and 11 kDa"}, {"measurement": "rate of PARP cleavage in nuclei (immunoblot)", "setting": "[5]", "value": "The same conclusion was obtained when the rate of cleavage of PARP was measured"}, {"measurement": "cleavage of the purified fusion protein (SDS-PAGE)", "setting": "[6]", "value": "Incubation of this fusion protein with caspase-3 resulted in its cleavage into three fragments of 30 kDa, 18 kDa and 11 kDa at the early time point"}]}
